Laboratory results as given in PMC7529148 (Nature structural & molecular biology, 2020).

B1: ClpP (enzyme)
chain: not shown
B2: ClpA (enzyme, E. coli, UniProt P0ABH9 1-758, looked up)
chain: MLNQELELSLNMAFARAREHRHEFMTVEHLLLALLSNPSAREALEACSVDLVALRQELEAFIEQTTPVLPASEEERDTQPTLSFQRVLQRAVFHVQSSGRNEVTGANVLVAIFSEQESQAAYLLRKHEVSRLDVVNFISHGTRKDEPTQSSDPGSQPNSEEQAGGEERMENFTTNLNQLARVGGIDPLIGREKELERAIQVLCRRRKNNPLLVGESGVGKTAIAEGLAWRIVQGDVPEVMADCTIYSLDIGSLLAGTKYRGDFEKRFKALLKQLEQDTNSILFIDEIHTIIGAGAASGGQVDAANLIKPLLSSGKIRVIGSTTYQEFSNIFEKDRALARRFQKIDITEPSIEETVQIINGLKPKYEAHHDVRYTAKAVRAAVELAVKYINDRHLPDKAIDVIDEAGARARLMPVSKRKKTVNVADIESVVARIARIPEKSVSQSDRDTLKNLGDRLKMLVFGQDKAIEALTEAIKMARAGLGHEHKPVGSFLFAGPTGVGKTEVTVQLSKALGIELLRFDMSEYMERHTVSRLIGAPPGYVGFDQGGLLTDAVIKHPHAVLLLDEIEKAHPDVFNILLQVMDNGTLTDNNGRKADFRNVVLVMTTNAGVRETERKSIGLIHQDNSTDAMEEIKKIFTPEFRNRLDNIIWFDHLSTDVIHQVVDKFIVELQVQLDQKGVSLEVSQEARNWLAEKGYDRAMGARPMARVIQDNLKKPLANELLFGSLVDGGQVTVALDKEKNELTYGFQSAQKHKAEAAH

Tests used:
[1] = molecular target: B2; assay: cryo-EM structure
[2] = molecular target: the molecule itself; assay: cryo-EM structure

Binder	binding result [1]	stoichiometry N [2]
B1	binds	14
B2		6
